The results in this text go back to article PMC10643153.

“And” between values parts separate entries of the source, which are not always exact repeats. Equal entries are not always repeated.

In experiment [1] the target is recombinant goldfish AdipoQ (His-tagged gAdipoQ) (goldfish (Carassius auratus)). Briefly: native gel or EMSA; self-association; protein electrophoresis in native gel under non-denaturing conditions, Coomassie blue staining; parallel SDS-PAGE as reference for the monomer. On the technique in general: In EMSA bound probe runs differently from free probe, usually more slowly.

The target is the same in experiment [2]. Briefly: SEC-MALS; self-association; top five fractions of the SEC peak pooled, 200-µl sample on a Superose 12 10/300 GL column linked with a DynaPro NanoStar instrument; apparent MW in solution. On the technique in general: In gel filtration, larger molecules generally elute earlier.

Usually stoichiometry N stands for a count of units in the complex or per binding partner. Consider “recombinant goldfish AdipoQ (His-tagged gAdipoQ) (domain or fragment)”, for which the stoichiometry N is 3 and 6 in experiment [1]; 3 in experiment [2].
